{
  "source": "patent US20050239203",
  "about": "“Regulation of endogenous gene expression in cells using zinc finger proteins” (published 2005)",
  "key": {"[1]": {"test_system": "Zif268 (Mus musculus)", "assay": "EMSA", "settings": "MBP fusion, same conditions; target sequence not given"}, "[2]": {"test_system": "SP-1 zinc finger domain (Homo sapiens)", "assay": "EMSA", "settings": "MBP fusion, same conditions; target sequence not given"}, "[3]": {"biological_target": "T1, VEGF3a/1 six-finger ZFP (synthetic)", "T1 chain": "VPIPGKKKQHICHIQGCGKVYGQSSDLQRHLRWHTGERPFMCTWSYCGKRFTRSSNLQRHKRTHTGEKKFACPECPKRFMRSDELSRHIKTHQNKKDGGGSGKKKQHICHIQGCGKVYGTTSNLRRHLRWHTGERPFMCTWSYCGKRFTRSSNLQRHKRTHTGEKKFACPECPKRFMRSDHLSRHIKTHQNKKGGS", "assay": "EMSA; apparent Kd, room temperature, 25 uM ZnCl2, poly dI-dC", "settings": "tags: N-terminal MBP fusion; label: 5'-32P", "description": "(§1) For the EMSA studies, 20 μl binding reactions contained 10 fmole (0.5 nM) 5′-³²P-labeled double-stranded target DNA, 35 mM Tris HCl (pH 7.8), 100 mM KCl, 1 mM MgCl₂, 5 mM dithiothreitol, 10% glycerol, 20 μg/ml poly dI-dC, 200 μg/ml bovine serum albumin, and 25 μM ZnCl₂. Protein was added as one fifth volume from a 3-fold dilution series. Binding was allowed to proceed for 60 min at either room temperature or 37° C. Polyacrylamide gel electrophoresis was carried out at room temperature or 37° C. using precast 10% or 10-20% Tris-HCl gels (BioRad) and standard Tris-Glycine runmning buffer. […] Thus, the 18-bp binding ZFP bound with high affinity to its target site. In a parallel experiment, VEGF1 protein was tested against its target using the oligonucleotides described in Example I, yielding an apparent Kd of approximately 2.5 nM."}, "[4]": {"biological_target": "T1, VEGF3a/1 six-finger ZFP", "assay": "EMSA; apparent Kd, 37 C; complex half-life more than 10x longer than VEGF1", "settings": "tags: N-terminal MBP fusion; label: 5'-32P", "description": "as §1\nThe apparent Kd is a useful measure of the affinity of a protein for its DNA target. However, for a DNA binding site either in vitro or in vivo, its occupancy is determined to a large extent by the off-rate of the DNA-binding protein. The conditions for EMSA were as described above; binding and electrophoresis were performed at 37° C. […] Thus, under these in vitro conditions, the occupancy of the target site is much higher for the 18-bp binding protein than for the 9-bp binding protein."}, "[5]": {"biological_target": "T2, VEGF1-KRAB (synthetic, UniProt P08047 SEQ:1-99)", "T2 chain": "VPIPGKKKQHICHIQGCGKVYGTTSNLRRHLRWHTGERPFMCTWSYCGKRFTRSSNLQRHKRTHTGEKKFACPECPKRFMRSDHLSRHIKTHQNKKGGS", "assay": "cell_activity; endogenous VEGF ELISA, DFX-treated 293 cells", "settings": "tags: SV40 NLS, KRAB (KOX1), FLAG", "description": "Eighteen hours post transfection, the 293 cells were induced by treatment with 100 μM DFX (desferrioxamine), resulting in a rapid and lasting transcriptional activation of the VEGF gene and also in a gradual increase in VEGF mRNA stability (Ikeda et al., J. Biol. Chem. 270:19761-19766 (1995)). Under routine culture conditions, 293 cells secrete a low level of VEGF in the culture media. The cells were allowed to incubate an additional 24 hours before the supernatants were collected for determination of VEGF levels by an ELISA assay."}},
  "data": [
    {"molecule": "Zif268 target (sequence not stated)", "values": [
      {"measurement": "Kd", "setting": "[1]", "value": 0.06, "unit": "µM"}
    ]},
    {"molecule": "SP-1 target (sequence not stated)", "values": [
      {"measurement": "Kd", "setting": "[2]", "value": 0.065, "unit": "µM"}
    ]},
    {"molecule": "JVF9/JVF10 VEGF 18-bp target (dsDNA) DNA 1: AGCGAGCGGGGAGGATCGCGGAGGCTTGGGGCAGCCGGGTAG DNA 2: CGCTCTACCCGGCTGCCCCAAGCCTCCGCGATCCTCCCCGCT", "values": [
      {"measurement": "Kd", "setting": "[3]", "value": "~0.0015", "unit": "µM"},
      {"measurement": "Kd", "setting": "[4]", "value": "~0.009", "unit": "µM"}
    ]},
    {"molecule": "endogenous VEGF promoter target region (dsDNA) DNA 1: AGCGGGGAGGATCGCGGAGGCTTGG DNA 2: CCAAGCCTCCGCGATCCTCCCCGCT", "values": [
      {"measurement": "activity", "setting": "[5]", "value": 2, "unit": "fold repression"}
    ]}
  ]
}
